From patent US20100003258A1 (AVEO PHARMACEUTICALS, published 2010)

Columns and labels:
[1] = molecular target: T1, recombinant human FGFR3 IIIb Fc fusion protein (human, UniProt P22607-2 23-377, limits assumed); experiment: SPR (Biacore T100), antibody captured on anti-mouse Ig, rhFGFR3 IIIb Fc as analyte, 25 C
T1 construct: Bought reagent; the IIIb splice isoform is meant; also called rhFGFR3 IIIb Fc; hFGFR3 IIIb; not shown: Fc fragment (removable by Factor Xa, detected with anti-human IgG)
T1 sequence (looked up): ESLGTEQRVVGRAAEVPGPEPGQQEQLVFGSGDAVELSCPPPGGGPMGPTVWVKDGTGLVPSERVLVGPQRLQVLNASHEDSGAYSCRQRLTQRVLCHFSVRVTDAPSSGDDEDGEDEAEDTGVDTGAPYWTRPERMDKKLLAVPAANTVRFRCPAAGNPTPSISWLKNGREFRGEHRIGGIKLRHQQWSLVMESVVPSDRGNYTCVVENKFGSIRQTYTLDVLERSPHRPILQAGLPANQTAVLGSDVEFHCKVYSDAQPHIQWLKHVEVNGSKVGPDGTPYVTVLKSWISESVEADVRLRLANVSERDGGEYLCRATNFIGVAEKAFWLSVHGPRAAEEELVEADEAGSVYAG
Protocol: (§1) The binding affinities and kinetics of interaction of the monoclonal antibodies (15D8, 27H2, 2G4, and 4E7(7D12)) produced in Example 1 against recombinant human FGFR3 (IIIb and IIIc isoforms) Fc fusion protein (rhFGFR3 IIIb Fc or rhFGFR3 IIIc Fc) were measured by surface plasmon resonance using a Biacore™ T100 (Biacore) instrument.
(§2) Rabbit anti-mouse immunoglobulins (Biacore, Catalog No. BR-1005-14) were immobilized on carboxymethylated dextran CM4 sensor chips (Biacore, Catalog No. BR-1005-34) by amine coupling (Biacore, Catalog No. BR-1000-50) using a standard coupling protocol according to manufacturer's instructions.
(§3) The antibodies were captured in an individual flow cell at a flow rate of 10 μl/min. Injection time was varied for each antibody to yield approximately 40-50 RU of antibody captured for each cycle. Buffer or rhFGFR3 IIIb Fc (R&D Systems, Catalog No. 1264-FR-050) or rhFGFR3 IIIc Fc (R&D Systems, Catalog No. 766-FR-050) diluted in running buffer was injected sequentially over a reference surface (no antibody captured) and the active surface (antibody to be tested) for 300 sec at 60 μl/min. The dissociation phase was monitored for 30 minutes. The surface was then regenerated with two 60-seconds injection of 10 mM Glycine-HCl, pH 1.7 (made from Glycine pH 1.5 (Biacore, Catalog No. BR-1003-54) and pH 2.0 (Biacore, Catalog No. BR-1003-55)) at a flow rate of 60 μl/min. rhFGFR3 Fc concentrations tested were 0.62 nM to 40 nM.

[2] = molecular target: T2, recombinant human FGFR3 IIIc Fc fusion protein (human, UniProt P22607 23-375); experiment: SPR (Biacore T100), antibody captured on anti-mouse Ig, rhFGFR3 IIIc Fc as analyte, 25 C
T2 construct: Bought reagent; also called rhFGFR3 IIIc Fc; not shown: Fc fragment (removable by Factor Xa)
T2 sequence (looked up): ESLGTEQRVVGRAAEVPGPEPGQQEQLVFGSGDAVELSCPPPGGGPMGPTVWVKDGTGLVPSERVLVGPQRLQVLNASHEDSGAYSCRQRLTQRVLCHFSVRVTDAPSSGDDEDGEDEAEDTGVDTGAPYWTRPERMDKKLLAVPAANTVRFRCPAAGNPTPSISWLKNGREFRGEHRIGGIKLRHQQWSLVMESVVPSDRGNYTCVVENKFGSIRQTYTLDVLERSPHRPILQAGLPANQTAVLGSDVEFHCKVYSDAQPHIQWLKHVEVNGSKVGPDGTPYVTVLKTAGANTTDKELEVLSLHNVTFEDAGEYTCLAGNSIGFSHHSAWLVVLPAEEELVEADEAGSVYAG
Protocol: as §1, §2, §3

[3] = molecular target: T1, recombinant human FGFR3 IIIb Fc fusion …; experiment: SPR (Biacore T100), antibody captured on anti-mouse Ig, rhFGFR3 IIIb Fc as analyte, 37 C
Protocol: as §1, §2, §3

[4] = molecular target: T2, recombinant human FGFR3 IIIc Fc fusion …; experiment: SPR (Biacore T100), antibody captured on anti-mouse Ig, rhFGFR3 IIIc Fc as analyte, 37 C
Protocol: as §1, §2, §3

[5] = molecular target: T1, recombinant human FGFR3 IIIb Fc fusion …; experiment: ECL competition assay: inhibition of rhFGFR3 IIIb Fc binding to coated FGF1 (competitor FGF1)
Protocol: The antibodies were tested by ECL (Electrochemiluminescence) assay for inhibition of hFGFR3 IIIB binding to FGF-1. […] The plates then were washed 3 times with PBS and blocked with 200 μl of PBS containing 5% BSA (Sera Care Life Sciences, Catalog No. AP-4510-80) and 5 μg/mL heparin (Sigma, Catalog No. H4784) for 1 hour at room temperature. The antibodies (concentration range: 0.029-30 μg/mL) were incubated for 1 hour at room temperature with 1.7 μg/mL rhFGFR3 IIIb Fc (R&D Systems, Catalog No. 1264-FR-050) and 5 μg/mL heparin. After washing the plates 3 times with PBS, 25 μl of the antibody-receptor mixture was added to the plates for another hour at room temperature with agitation. The plates were washed three times with PBS and incubated with 25 μl of 1 μg/mL ST-anti-human IgG antibody (Meso Scale Discovery, Catalog No. R32AJ-1) for 1 hour at room temperature with agitation. The plates then were washed 3 times with PBS, and 150 μl of 1× read buffer (Meso Scale Discovery, Catalog No. R92TC-1) was added to each well before the plates were analyzed on a Sector Imager 2400 (Meso Scale Discovery) instrument.

B1: anti-FGFR3 monoclonal antibody 4E7 (antibody, mouse IgG1, kappa, V domains shown)
VH: EIQLQQSGPELVKPGASVKVSCKASGYAFTSYNMYWVKQSHGKSLEWIGYIDPYNGGTRYNQKFKGKATLTVDKSSSTAYMHLNSLTSEDSAVYYCAREGGNYEAWFAYWGQGTLVTVSA
VL: QIVLTQSPALMSASPGEKVTMTCSASSSVSYMYWYQQKPRSSPKPWIYLTSNLASGVPARFSGSGSGTSYSLTISSMEAEDAATYYCQQWSSNPLTFGAGTKLELKR
notes: Murine IgG1/kappa from hybridoma; also called 4E7 IgG1; 4E7 (7D12)
- Kd [1]: 3.3 nM
- koff [1]: 0.00037 s⁻¹
- kon [1]: 150000 M⁻¹ s⁻¹
- Kd [2]: 2.6 nM
- koff [2]: 0.00019 s⁻¹
- kon [2]: 110000 M⁻¹ s⁻¹
- Kd [3]: 3.3 nM
- koff [3]: 0.00023 s⁻¹
- kon [3]: 74000 M⁻¹ s⁻¹
- Kd [4]: 2.2 nM
- koff [4]: 0.00017 s⁻¹
- kon [4]: 94000 M⁻¹ s⁻¹
- IC50 [5]: 18.5 nM
- Maximum Neutralization (%) [5]: 91.2%

B2: 7D12 Fab (Fab, V domains shown, not shown: a dimerising Fc or GST)
VH: EIQLQQSGPELVKPGASVKVSCKASGYAFTSYNMYWVKQSHGKSLEWIGYIDPYNGGTRYNQKFKGKATLTVDKSSSTAYMHLNSLTSEDSAVYYCAREGGNYEAWFAYWGQGTLVTVSA
VL: QIVLTQSPALMSASPGEKVTMTCSASSSVSYMYWYQQKPRSSPKPWIYLTSNLASGVPARFSGSGSGTSYSLTISSMEAEDAATYYCQQWSSNPLTFGAGTKLELKR
notes: preparation not described; also called anti-FGFR3 Fab fragment 7D12
- IC50 [5]: 50 nM
- Maximum Neutralization (%) [5]: 88.8%

B3: 4E7 Fab (Fab, V domains shown, not shown: a dimerising Fc or GST)
VH: EIQLQQSGPELVKPGASVKVSCKASGYAFTSYNMYWVKQSHGKSLEWIGYIDPYNGGTRYNQKFKGKATLTVDKSSSTAYMHLNSLTSEDSAVYYCAREGGNYEAWFAYWGQGTLVTVSA
VL: QIVLTQSPALMSASPGEKVTMTCSASSSVSYMYWYQQKPRSSPKPWIYLTSNLASGVPARFSGSGSGTSYSLTISSMEAEDAATYYCQQWSSNPLTFGAGTKLELKR
notes: Fab fragment of murine 4E7; preparation not described; also called anti-FGFR3 Fab fragment 4E7
- IC50 [5]: 69.5 nM
- Maximum Neutralization (%) [5]: 92.2%

B4: anti-FGFR3 monoclonal antibody 7D12 (antibody, mouse IgG1, kappa, V domains shown)
VH: EIQLQQSGPELVKPGASVKVSCKASGYAFTSYNMYWVKQSHGKSLEWIGYIDPYNGGTRYNQKFKGKATLTVDKSSSTAYMHLNSLTSEDSAVYYCAREGGNYEAWFAYWGQGTLVTVSA
VL: QIVLTQSPALMSASPGEKVTMTCSASSSVSYMYWYQQKPRSSPKPWIYLTSNLASGVPARFSGSGSGTSYSLTISSMEAEDAATYYCQQWSSNPLTFGAGTKLELKR
notes: Murine IgG1/kappa from a separate hybridoma; also called 7D12 IgG1; 4E7 (7D12)
- IC50 [5]: 13.3 nM
- Maximum Neutralization (%) [5]: 93.9%

B5: anti-FGFR3 monoclonal antibody 2G4 (antibody, mouse IgG1, kappa, V domains shown)
VH: EIQLQQSGPELVKPGASVKVSCKASGYAFTSYNMYWVKQSHGKSLEWIGYIDPYNGGTRDNQKFKGKATLTVDKSSSTAYMHLNSLTSEDSAVYYCAREGGNYEAWFAYWGQGTLVTVSA
VL: QIVLTQSPALMSASPGEKVTMTCSASSSVSYMYWYQQKPRSSPKPWIYLTSNLASGVPARFSGSGSGTSYSLTISSMEAEDAATYYCQQWSSNPLTFGAGTKLELKR
notes: Murine IgG1/kappa from hybridoma; also called 2G4 IgG1; murine antibody 2G4
- Kd [1]: 3.2 nM
- koff [1]: 0.00032 s⁻¹
- kon [1]: 120000 M⁻¹ s⁻¹
- Kd [2]: 1.1 nM
- koff [2]: 0.00011 s⁻¹
- kon [2]: 100000 M⁻¹ s⁻¹
- Kd [3]: 1.4 nM
- koff [3]: 0.00023 s⁻¹
- kon [3]: 150000 M⁻¹ s⁻¹
- Kd [4]: 2.6 nM
- koff [4]: 0.00026 s⁻¹
- kon [4]: 100000 M⁻¹ s⁻¹
- IC50 [5]: 11.1 nM
- Maximum Neutralization (%) [5]: 64.9%

B6: 15D8 Fab (Fab, V domains shown, not shown: a dimerising Fc or GST)
VH: EIQLQQSGPELVKPGASVKVSCKASGYAFTSYNMYWVKQSHGKSLEWIGYIDPYNGGTSYNQKFKGKATLTVDKSSSTAYMHLNSLTSEDSAVYYCAREGGNYEAWFAYWGQGTLVTVSA
VL: QIVLTQSPALMSASPGEKVTMTCSASSSVSYMYWYQQKPRSSPKPWIYLTSYLASGVPARFSGSGSGTSYSLTISSMEAEDAATYYCQQWSSYPLTFGAGTKLELKR
notes: Fab fragment of murine 15D8; preparation not described; also called anti-FGFR3 Fab fragment 15D8
- IC50 [5]: 63.8 nM
- Maximum Neutralization (%) [5]: 91.7%

B7: 2G4 Fab (Fab, V domains shown, not shown: a dimerising Fc or GST)
VH: EIQLQQSGPELVKPGASVKVSCKASGYAFTSYNMYWVKQSHGKSLEWIGYIDPYNGGTRDNQKFKGKATLTVDKSSSTAYMHLNSLTSEDSAVYYCAREGGNYEAWFAYWGQGTLVTVSA
VL: QIVLTQSPALMSASPGEKVTMTCSASSSVSYMYWYQQKPRSSPKPWIYLTSNLASGVPARFSGSGSGTSYSLTISSMEAEDAATYYCQQWSSNPLTFGAGTKLELKR
notes: Fab fragment of murine 2G4; preparation not described; also called anti-FGFR3 Fab fragment 2G4
- IC50 [5]: 65 nM
- Maximum Neutralization (%) [5]: 96.2%

B8: anti-FGFR3 monoclonal antibody 27H2 (antibody, mouse IgG1, kappa, V domains shown)
VH: EIQLQQSGPELVKPGASVKVSCKASGYAFTSYNMYWVKQSHGKSLEWIGYIDPYNGGTRYNQKFKGKATMTVDKSSSTAYMHLNSLTSEDSAVYYCAREGGNYEAWFAYWGQGTLVTVSA
VL: QIVLTQSPALMSASPGEKVTMTCSASSSVSYMYWYQQKPRSSPKPWIYLTSNLASGVPARFSGSGSGTSYSLTISSMEAEDAATYYCQQWSSNPLTFGAGTKLELKR
notes: Murine IgG1/kappa from hybridoma; also called 27H2 IgG1; murine antibody 27H2
- Kd [1]: 3 nM
- koff [1]: 0.00026 s⁻¹
- kon [1]: 90000 M⁻¹ s⁻¹
- Kd [2]: 2.1 nM
- koff [2]: 0.00016 s⁻¹
- kon [2]: 75000 M⁻¹ s⁻¹
- Kd [3]: 2.1 nM
- koff [3]: 0.00019 s⁻¹
- kon [3]: 100000 M⁻¹ s⁻¹
- Kd [4]: 2.1 nM
- koff [4]: 0.0002 s⁻¹
- kon [4]: 96000 M⁻¹ s⁻¹
- IC50 [5]: 15.4 nM
- Maximum Neutralization (%) [5]: 99.6%

B9: 27H2 Fab (Fab, V domains shown, not shown: a dimerising Fc or GST)
VH: EIQLQQSGPELVKPGASVKVSCKASGYAFTSYNMYWVKQSHGKSLEWIGYIDPYNGGTRYNQKFKGKATMTVDKSSSTAYMHLNSLTSEDSAVYYCAREGGNYEAWFAYWGQGTLVTVSA
VL: QIVLTQSPALMSASPGEKVTMTCSASSSVSYMYWYQQKPRSSPKPWIYLTSNLASGVPARFSGSGSGTSYSLTISSMEAEDAATYYCQQWSSNPLTFGAGTKLELKR
notes: Fab fragment of murine 27H2; preparation not described; also called anti-FGFR3 Fab fragment 27H2
- IC50 [5]: 53.5 nM
- Maximum Neutralization (%) [5]: 95.8%
